Measured values: the RNAGym collection of RNA variant scans (doi:10.1073/pnas.2313332121)
Fewer inactive variants are shown than the library holds.

B1: TPR 5TU (parent)
chain: GGAUCUUCUCGAUCUAACAAAAAAGACAAAUCUGCCACAAAGCUUGAGAGCAUCUUCGGAUGCAGAGGCGGCAGCCUUCGGUGGCGCGAUAGCGCCAACGUUCUCAACUAUGACACGCAAAACGCGUGCUCCGUUGAAUGGAGUUUAUCAUG

Variants of: B1
Test: polymerase ribozyme fitness, log enrichment relative to wild type (log ratio); higher = more active; in vitro selection for triplet polymerase activity
In short: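 Mutant libraries for each subunit of a heterodimeric triplet polymerase ribozyme were made by PCR and then transcribed. Each library underwent one round of in vitro selection in triplicate: annealing with a biotinylated primer, the partner subunit and triplets, frozen incubation at −7 °C, gel excision of extended constructs, streptavidin-bead capture and RT-PCR. Input and output libraries were Illumina-sequenced, and only genotypes with ≥10 input reads and ≥1 read per output were kept. Fitness is the logarithm, base 2, of genotype enrichment over wild-type enrichment, computed from inverse-variance-weighted replicate averages.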

| Variant | polymerase ribozyme fitness (log ratio) |
| --- | --- |
| A19G U78G C87G A98U U101G G126A | ≤ -4.2 |
| A19C C27A A39C C79U C93A U102G G117C | -4.01 |
| A19U A22U A47C G80A G86A C87A C95U U104G A120U | ≤ -4.2 |
| A19U C54A G70A U82A U134G U139A | ≤ -4.2 |
| A19U G80A | -0.164 |
| C18A A19C A40C C85U | 0.244 |
| A20C A41U G59A A60U C69G G86A C103G | ≤ -4.2 |
| A19C C27A C125U U148G | ≤ -4.2 |
| A19U C96G A142C | -2.72 |
| A19G G48C G86A C103U C108G | ≤ -4.2 |
| A17U G46U G84A C105U | -0.266 |
| A17U C54G C96U | -2.08 |
| A17U C32G G48A C79G G84U G86U C108U | ≤ -4.2 |
| A19U A60U C93U C114U | -4.17 |
| A20C A52U G68C G84A U134C | ≤ -4.2 |
| C18U A20G C87G U102G | ≤ -4.2 |
| C18G G84C G126U | -2.27 |
| A17U A24G A26G A47G G50A G65C U111C A142U | ≤ -4.2 |
| C18U G86U | -2.18 |
| A19U U53A C85A | -3.78 |
| C18G A23C G34A A66U G84U U135A | ≤ -4.2 |

| Variant | polymerase ribozyme fitness (log ratio) |
| --- | --- |
| A19C C125U | 0.16 |
| A17U G50A C87G G141A | ≤ -4.2 |
| C18U U53A C85A C96A A137G | ≤ -4.2 |
| A17U U33G A52C | ≤ -4.2 |
| A19U G46A C51U A91G G124U U139A | ≤ -4.2 |
| A19C A28U C75A C85U G92U | ≤ -4.2 |
| A17U C93U C114A C116G | ≤ -4.2 |
| C18U C35U G58U G80C C85U | ≤ -4.2 |
| C18U G25C A26C C32G G50U G58C C75U A91G C114A | ≤ -4.2 |
| A19G A23U A30C G48U U56C A60U C87U | ≤ -4.2 |
| A17U A22U A52G G92C A115G | -2.67 |
| A20C A52G C79A G133C U146G | ≤ -4.2 |
| C18A A39C G58C G84A U145G | -3.36 |
| A17U C35U A97U G141A | -1.34 |
| A19C C36U G70A G80U C105U G152U | -3.99 |
| A17U C54A A89C C99A G136A | -4.03 |
| A19U C85U | -0.763 |
| A19U U44A U53A A73U C85U G136A | ≤ -4.2 |
| A20C A39C A40G G84U G88U C93A C96A | ≤ -4.2 |
| C18U A19G | -1.03 |
| A19G A41U C57U G84U U146A A147U U151A | ≤ -4.2 |

| Variant | polymerase ribozyme fitness (log ratio) |
| --- | --- |
| A17U C116U | -0.46 |
| A19U A30U U55G G59A G86U A150U | ≤ -4.2 |
| C18G G25C U33C C108G | -3.95 |
| A17U G94C C95U C105U | -0.248 |
| A19U A39G C85U U134G | ≤ -4.2 |
| A19C U61C G141C U144C C149A | ≤ -4.2 |
| C18U A47C C79G G88A A91C A121U U148G | ≤ -4.2 |
| A19C G88C | -3.96 |
| A19G G50C C75G C85G C103A U135C | ≤ -4.2 |
| C18G C35A C76U G83C G84U G88A G141U | ≤ -4.2 |
| A19G A91C C116A G141A U145G | ≤ -4.2 |
| A20C A97G | -0.83 |
| A19U G25U A49C U55G U56G C85U A98G A106G C118U G133A U145G | ≤ -4.2 |
| C18G A52G C87U | -1.15 |
| A17U C51A G94U A138G A150U | ≤ -4.2 |
| A19U G71U G83C U146G | ≤ -4.2 |
| A19G A52U U53A U82C C87G | ≤ -4.2 |
| C18G A21C A52G G84U G133C U134C | -4.07 |
| A17U C87U U90C C99G | -3.69 |
| A17U C51U U55A U78A G81C C123G | ≤ -4.2 |
| A19C A41G G59U A91C A107G A120U | ≤ -4.2 |

| Variant | polymerase ribozyme fitness (log ratio) |
| --- | --- |
| A17U A26C C38U G83A G124U | -3.97 |
| A19U A20C A73G G92U C116A | -0.142 |
| A19G U55A G83A A97G G124A A142C | ≤ -4.2 |
| A19C U53A | -1.57 |
| A19U C51U C54A C85G C132G | ≤ -4.2 |
| A19G C96U C123U | -0.681 |
| A19G A23U C38U G42U G68A U82A | ≤ -4.2 |
| A19C A21U U101A | 0.427 |
| A19U A26G A122G | ≤ -4.2 |
| A17U C93A | -2.74 |
| C18A A21C A37C G81A C87G | ≤ -4.2 |
| A19C U56A A91U A147C | ≤ -4.2 |
| A17U A29U C93A G141U | ≤ -4.2 |
| A20C A41U G68C G83A G100U A115G C116U C123G | ≤ -4.2 |
| A20C A28U C93U C129U G143A | ≤ -4.2 |
| A19U C36U G86C C93U G100A G126C | ≤ -4.2 |
| C18U G25U G42C A73U G83U C93U A106G A121C U144A | ≤ -4.2 |
| C18G G59U G84U | -2.51 |
| A17U A113U | -1.99 |
| A19C A21C C76U C87A A110G A120G | ≤ -4.2 |
| C18U A19G G94A | -2.01 |
